Numbering of substitutions follows the chain as printed.

We go through six molecules from PMC9340783 (2022).

In this assay the target is hGITR ECD hFc (human, UniProt Q9Y5U5 26-161, Thr45Ala). The assay is described as follows: SPR. In general terms: Surface plasmon resonance follows binding to a sensor surface in real time, without labels.
Chain of hGITR ECD hFc (Q9Y5U5 26-161 T45A): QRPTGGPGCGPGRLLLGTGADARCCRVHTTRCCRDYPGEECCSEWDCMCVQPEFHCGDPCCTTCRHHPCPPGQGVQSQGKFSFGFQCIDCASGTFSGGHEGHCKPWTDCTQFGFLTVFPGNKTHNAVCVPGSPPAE

B1: hab019e2 (antibody, V domains shown)
VH: QVQLVESGGGVVQPGRSLRLSCAASGFTFSSYGMHWVRQAPGKGLEWVAVIWYAGSRKFYADSVEGRFTISRDNSKNTLYLQMNSLRAEDTAVYYCARGGSLEGGFFYYGMDVWGQGTTVTVSS
VL: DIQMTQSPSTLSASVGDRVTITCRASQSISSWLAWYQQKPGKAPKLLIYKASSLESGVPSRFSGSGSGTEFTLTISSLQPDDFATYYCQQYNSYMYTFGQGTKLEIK
The molecule B1 gave a koff of 0.00023 s⁻¹.

B2: hab019 (antibody, V domains shown)
VH: B1 VH with N84S, L86V, A88P, E103D
VL: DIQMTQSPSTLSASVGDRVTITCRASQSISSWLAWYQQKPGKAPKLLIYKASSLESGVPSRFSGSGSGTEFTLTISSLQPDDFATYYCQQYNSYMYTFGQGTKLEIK
In turn, B2 yielded a koff of 0.000205 s⁻¹.

B3: hab076 (antibody, V domains shown)
VH: QVQLVESGGGVVQPGRSLRLSCAASGFTFSSYGMHWVRQAPGKGLEWVAVIWYETSNKYYADSVKGRFTISRDNSKNTLYLQMNSLRAEDTAVYYCARYGASSGWYWYFDLWGRGTLVTVSS
VL: DIQLTQSPSFLSASVGDRVTITCRASQGISSYLAWYQQKPGKAPKLLIYAASTLQSGVPSRFSGSGSGTEFTLTISSLQPEDFATYCCQQLNSYPFTFGQGTKLEIK
As to B3, the koff came to 0.000684 s⁻¹.

B4: hab070 (antibody, V domains shown)
VH: B3 VH with Y59F, A61V
VL: B3 VL with Y32F
Take B4: the koff amounted to 0.000185 s⁻¹.

B5: hab064 (antibody, V domains shown)
VH: B3 VH with S85N, A101G, S102N
VL: B3 VL with Y32F, K42T
As for B5, the koff was found to be 0.000315 s⁻¹.

B6: hab070e1 (antibody, V domains shown)
VH: B3 VH with Y59F, A61V
VL: B3 VL with Y32F, C87Y
Molecule B6 returned a koff of 0.000381 s⁻¹.

Broadly, the koff is the first-order rate constant of dissociation. A higher koff goes with fast dissociation.
